B1: mouse thrombopoietin receptor cMPL expressed on the surface of Freestyle HEK293 cells (receptor, UniProt Q08351 26-625, looked up)
chain: QDVFLLALGTEPLNCFSQTFEDLTCFWDEEEAAPSGTYQLLYAYRGEKPRACPLYSQSVPTFGTRYVCQFPAQDEVRLFFPLHLWVKNVSLNQTLIQRVLFVDSVGLPAPPRVIKARGGSQPGELQIHWEAPAPEISDFLRHELRYGPTDSSNATAPSVIQLLSTETCCPTLWMPNPVPVLDQPPCVHPTASQPHGPAPFLTVKGGSCLVSGLQAGKSYWLQLRSQPDGVSLRGSWGPWSFPVTVDLPGDAVTIGLQCFTLDLKMVTCQWQQQDRTSSQGFFRHSRTRCCPTDRDPTWEKCEEEEPRPGSQPALVSRCHFKSRNDSVIHILVEVTTAQGAVHSYLGSPFWIHQAVLLPTPSLHWREVSSGRLELEWQHQSSWAAQETCYQLRYTGEGREDWKVLEPSLGARGGTLELRPRARYSLQLRARLNGPTYQGPWSAWSPPARVSTGSETAWITLVTALLLVLSLSALLGLLLLKWQFPAHYRRLRHALWPSLPDLHRVLGQYLRDTAALSPSKATVTDSCEEVEPSLLEILPKSSESTPLPLCPSQPQMDYRGLQPCLRTMPLSVCPPMAETGSCCTTHIANHSYLPLSYWQQP
notes: whole, on cells; also called mouse cMPL; mouse cMLP; not shown: Fused with either GFP (printed 'GPF') or mCherry
B2: human thrombopoietin receptor cMPL expressed on the surface of Freestyle HEK293 cells (receptor, UniProt P40238 26-635, looked up)
chain: QDVSLLASDSEPLKCFSRTFEDLTCFWDEEEAAPSGTYQLLYAYPREKPRACPLSSQSMPHFGTRYVCQFPDQEEVRLFFPLHLWVKNVFLNQTRTQRVLFVDSVGLPAPPSIIKAMGGSQPGELQISWEEPAPEISDFLRYELRYGPRDPKNSTGPTVIQLIATETCCPALQRPHSASALDQSPCAQPTMPWQDGPKQTSPSREASALTAEGGSCLISGLQPGNSYWLQLRSEPDGISLGGSWGSWSLPVTVDLPGDAVALGLQCFTLDLKNVTCQWQQQDHASSQGFFYHSRARCCPRDRYPIWENCEEEEKTNPGLQTPQFSRCHFKSRNDSIIHILVEVTTAPGTVHSYLGSPFWIHQAVRLPTPNLHWREISSGHLELEWQHPSSWAAQETCYQLRYTGEGHQDWKVLEPPLGARGGTLELRPRSRYRLQLRARLNGPTYQGPWSSWSDPTRVETATETAWISLVTALHLVLGLSAVLGLLLLRWQFPAHYRRLRHALWPSLPDLHRVLGQYLRDTAALSPPKATVSDTCEEVEPSLLEILPKSSERTPLPLCSSQAQMDYRRLQPSCLGTMPLSVCPPMAESGSCCTTHIANHSYLPLSYWQQP
notes: whole, on cells; also called human cMPL; human cMLP; not shown: Fused with either GFP (printed 'GPF') or mCherry

Target: T1, Human IgG1 Fc (human, UniProt P01857-1 100-330 = IgG part, limits assumed)
T1 construct: domain: Fc; Negative control; also called human IgG1 Fc domain
Experiment: flow cytometry, percent of bound cells, cMPL-expressing HEK293 cells
Text: To study the binding capabilities of the fusion polypeptide provided herein to thrombopoietin receptors, the fusion polypeptides were contacted with cells expressing thrombopoietin receptor cMPL. Mouse or human thrombopoietin receptor cMPL was expressed on the surface of Freestyle™ HEK293 cell line. Mouse or human thrombopoietin receptor cMPL were expressed as a fusion polypeptide with either GPF or mCherry. Expression of cMPL receptors was confirmed by measuring fluorescent signal. As a general control, PD1 protein binding to PDL1-expressing cells was used. Human IgG1 Fc and secondary antibody were used as a negative control since they would not be expected to bind to cMPL. […] The cMPL expressing cells were treated with Nplate (Romiplostim) as the positive control. FLT3L-romiplostim fusion polypeptide with a His-Tag, FLT3L-romiplostim fusion polypeptide without a His-Tag were tested. Binding was analyzed using a fluorescent secondary antibody against IgG1 domain of the polypeptide. The percentages of cells bound to the tested polypeptide were quantified.

Row | Binder | binding result
1 | B1 | no binding
2 | B2 | no binding
